Measurements reported in patent US20080027145A1, “Therapeutic Molecules and Methods for Generating and/or Selecting Same” (priority 2004, published 2008).

How the values were obtained:
[1] = tested on: mouse embryonic fibroblasts (MEFs); assay: Long-term colony assay of retrovirally infected MEFs; type: cell-based; details: colonies after 6 days
Procedure: FIG. 7 is a graphical representation showing that BH3-only proteins that bind selective targets have weak killing activity. (A) The affinities of BH3-only peptides for pro-survival proteins (tabulated in FIG. 3A) were inversely plotted to facilitate comparison of the patterns of BH3 binding. […] Immortalized 3T9 MEFs were infected with retroviruses expressing only GFP (control), or one of the BH3-only proteins and GFP. The viability of the infected (GFP^+ve) cells was determined by PI exclusion 24 hours after infection. The histograms represent means±1SD of at least 3 experiments. […] The filter was probed with a rat monoclonal anti-FLAG antibody. *Degradation product of Mcl-1. […] Viability of MEFs infected with retroviruses encoding the indicated proteins (GFP^+ve) was analyzed 24 hours after infection. The histograms represent means±1SD of at least 3 experiments. (E) Long-term survival of MEFs infected with BH3 expressing retroviruses. One hundred retrovirally-infected cells were plated and the absolute number of GFP^+ve colonies formed after 6 days scored. […] The data represent the average number of GFP^+ve colonies formed±1SD from at least 3 experiments. […] Viability of the infected (GFP^+ve) cells was scored 24 hours after infection (FIGS. 7A, 7B) and in long-term colony assays (FIG. 7E).

[2] = tested on: mouse embryonic fibroblasts (MEFs); assay: Killing of MEFs after retroviral expression, viability 24 hours after infection; type: cell-based; details: for killing of MEFs on co-expression with the NoxaBH3: co-expressed with GFP-Bims NoxaBH3, 24 hours; for killing of MEFs: retroviral expression, 24 hours after infection
Procedure: FIG. 7 is a graphical representation showing that BH3-only proteins that bind selective targets have weak killing activity. (A) The affinities of BH3-only peptides for pro-survival proteins (tabulated in FIG. 3A) were inversely plotted to facilitate comparison of the patterns of BH3 binding. […] Immortalized 3T9 MEFs were infected with retroviruses expressing only GFP (control), or one of the BH3-only proteins and GFP. The viability of the infected (GFP^+ve) cells was determined by PI exclusion 24 hours after infection. The histograms represent means±1SD of at least 3 experiments. […] The filter was probed with a rat monoclonal anti-FLAG antibody. *Degradation product of Mcl-1. […] Viability of MEFs infected with retroviruses encoding the indicated proteins (GFP^+ve) was analyzed 24 hours after infection. The histograms represent means±1SD of at least 3 experiments. (E) Long-term survival of MEFs infected with BH3 expressing retroviruses. One hundred retrovirally-infected cells were plated and the absolute number of GFP^+ve colonies formed after 6 days scored. […] The data represent the average number of GFP^+ve colonies formed±1SD from at least 3 experiments. To assess the biological relevance of the selective binding, retroviral delivery was used to compare the ability of different BH3-only proteins to kill wild-type mouse embryonic fibroblasts (MEFs). To monitor expression of the introduced gene, a vector (pMIG) in which its expression is coupled via an internal ribosomal entry site (IRES) to that of green fluorescent protein (GFP) was used (Van Parijs et al., Immunity 11:281-288, 1999). The cells were efficiently infected (>90%) and the introduced BH3-only proteins were comparably expressed. Viability of the infected (GFP^+ve) cells was scored 24 hours after infection (FIGS. 7A, 7B) and in long-term colony assays (FIG. 7E). […] Thus, the neutralization of Mcl-1 by Noxa should be complemented by co-expression of a BadBH3 to neutralize Bcl-2 and Bcl-xL in MEFs (FIG. 8A).

Bcl-w ΔC29 = molecular target: T1, Bcl-w ΔC29 (Homo sapiens, UniProt Q92843, A128E/C29S); assay: Bcl-w ΔC29
T1 construct: human Bcl-w (Acc. no. NP_004041; residues 1-164; C29S A128E); made in house
T1 sequence (Q92843 1-164 C29S/A128E): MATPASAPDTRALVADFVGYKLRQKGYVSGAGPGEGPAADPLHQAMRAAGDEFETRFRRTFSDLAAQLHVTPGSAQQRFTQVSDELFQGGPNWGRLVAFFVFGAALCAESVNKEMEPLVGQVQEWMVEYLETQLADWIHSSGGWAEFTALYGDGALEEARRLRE
Procedure: (§1) Table printed on a drawing sheet, FIGURE 2A
(§2) The patent's description of the figure: FIG. 2 is a graphical representation showing pro-apoptotic BH3-only and pro-survival Bcl-2-like proteins have distinctive interactions. (A) Using competitive binding assays, the IC50 (nM) for the indicated interactions were determined. The results shown are from representative experiments; the variation observed in multiple experiments was less than two-fold (using different chips or protein batches). (B) Relative binding affinities of interactions (tabulated in A) were inversely plotted. The BH3 binding profiles of pro-survival proteins are shown. In (C), the sequences of human Bcl-2 (residues 93-202), human Bcl-xL (86-195), human Bcl-w (42-151), mouse Mcl-1 (190-300) and mouse A1 (33-148) that form their BH3 binding grooves (α-helices 2 to 8; Hinds et al., EMBO J 22:1497-1507, 2003) were compared and presented as a phylogenetic tree. Color reproductions are available from the patentees on request.
(§3) First copying reader's note: The table itself prints no unit; IC50 (nM) is printed only on the axis of panel B of the same figure, which plots the same values.

FLAG-tagged Mcl-1 = molecular target: T2, FLAG-tagged Mcl-1 (Mus musculus, UniProt P97287); assay: Co-immunoprecipitation in transfected 293T cells; type: binding; details: tagged full-length proteins
T2 construct: expressed in transfected cells; host or cells: HEK293T
T2 sequence (P97287 whole entry): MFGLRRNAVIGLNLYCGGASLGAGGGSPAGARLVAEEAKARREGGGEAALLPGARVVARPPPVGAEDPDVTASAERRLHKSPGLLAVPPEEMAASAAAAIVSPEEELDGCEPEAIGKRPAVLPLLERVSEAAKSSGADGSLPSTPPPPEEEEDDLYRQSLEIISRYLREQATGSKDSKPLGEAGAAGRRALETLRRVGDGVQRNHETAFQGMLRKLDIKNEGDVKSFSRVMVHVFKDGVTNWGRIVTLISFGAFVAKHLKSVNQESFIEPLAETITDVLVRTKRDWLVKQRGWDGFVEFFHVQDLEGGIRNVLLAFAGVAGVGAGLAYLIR
Source text: (§4) Equivalent ^35S-labeled lysates harvested from 293T cells were immunoprecipitated with antibodies to the HA, FLAG (FL) or control (C) tags.
(§5) The maintenance, transfection and metabolic labeling of the human embryonic kidney (HEK) 293T cells with ^35S-methionine/cysteine (NEN) as well as co-immunoprecipitation have been described (Huang et al., Supra; Moriishi et al., Proc Natl Acad Sci USA 96:9683-9688, 1999; O'Conner et al., Supra). Briefly, equivalent TCA-precipitable lysates were immunoprecipiated using the mouse monoclonal antibodies to HA (HA.11; CRP), FLAG (M2; Sigma) and control Glu-Glu (CRP) tags. The proteins were resolved by SDS:PAGE, transferred onto nitrocellulose membranes and detected by fluorography (Amplify; Amersham Biosciences).
(§6) To verify the in vitro findings, interactions of selected pairs of the full-length N-terminally tagged proteins were investigated in mammalian cells by co-immunoprecipitation. […] The cells were metabolically labeled with ^35S-methionine/cysteine to permit semi-quantitative assessment of any interaction between co-associating radiolabeled proteins.
(§7) To verify the in vitro findings, selected pairs of the full-length N-terminally tagged proteins associated in mammalian cells were investigated by co-immunoprecipitation. […] The cells were metabolically labeled with ^35S-methionine/cysteine to permit semi-quantitative assessment of any interaction between the labeled proteins or interaction was gauged by the more sensitive western blotting.

FLAG-tagged Bcl-xL = molecular target: T3, FLAG-tagged Bcl-xL (Homo sapiens, UniProt Q07817); assay: Co-immunoprecipitation in transfected 293T cells; type: binding; details: tagged full-length proteins
T3 construct: expressed in transfected cells; host or cells: HEK293T
T3 sequence (Q07817 whole entry): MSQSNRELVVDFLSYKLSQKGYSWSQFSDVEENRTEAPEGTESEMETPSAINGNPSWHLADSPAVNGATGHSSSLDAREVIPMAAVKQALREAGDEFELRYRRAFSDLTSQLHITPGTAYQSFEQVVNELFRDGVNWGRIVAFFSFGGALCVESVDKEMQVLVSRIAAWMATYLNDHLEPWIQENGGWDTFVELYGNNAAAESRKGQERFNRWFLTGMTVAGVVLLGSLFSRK
Source text: as §4, §5, §6, §7

Bcl-2 ΔC22 = molecular target: T4, Bcl-2 ΔC22 (Homo sapiens, UniProt P10415); assay: Bcl-2 ΔC22
T4 construct: Human Bcl-2 (Acc. no. NP_000624; residues 1-217); made in house
T4 sequence (P10415 1-217, stated change not applied): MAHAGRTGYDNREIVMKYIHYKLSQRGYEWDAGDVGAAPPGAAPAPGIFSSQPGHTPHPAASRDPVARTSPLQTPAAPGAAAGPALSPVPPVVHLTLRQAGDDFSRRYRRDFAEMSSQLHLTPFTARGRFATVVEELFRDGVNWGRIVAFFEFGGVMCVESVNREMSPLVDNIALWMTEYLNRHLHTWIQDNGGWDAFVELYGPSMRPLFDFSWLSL
Procedure: as §1
Head of the field: Bcl-2 ΔC22
as §2, with “In (C), the sequences of human Bcl-2 (residues 93-202), human Bcl-xL (86-195), human Bcl-w (42-151), mouse Mcl-1 (190-300) and mouse A1 (33-148) that form their BH3 binding grooves (α-helices 2 to 8; Hinds et al., EMBO J 22:1497-1507, 2003) were compared and presented as a phylogenetic tree.” left out
as §3
Where the first naming reader finds the target: head: Bcl-2 ΔC22

A1 ΔC20 = molecular target: T5, A1 ΔC20 (Mus musculus, UniProt Q07440); assay: A1 ΔC20
T5 construct: mouse A1 (Acc. no. NP_033872; residues 1-152); GST (N, cleaved yes); made in house
T5 sequence (Q07440 1-152, stated change not applied): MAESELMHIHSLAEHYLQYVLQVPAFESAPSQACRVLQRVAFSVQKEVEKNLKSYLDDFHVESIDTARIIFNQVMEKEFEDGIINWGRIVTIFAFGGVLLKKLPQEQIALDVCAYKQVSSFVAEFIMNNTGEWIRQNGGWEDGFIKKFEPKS
Procedure: as §1
Head of the field: A1 ΔC20
as §2, §3
Where the first naming reader finds the target: head: A1 ΔC20

Bcl-xL ΔC24 = molecular target: T6, Bcl-xL ΔC24 (Homo sapiens, UniProt Q07817); assay: Bcl-xL ΔC24
T6 construct: Human Bcl-xL (Acc. no. NP_612815; residues 1-209); GST (N, cleaved yes); made in house
T6 sequence (Q07817 1-209, stated change not applied): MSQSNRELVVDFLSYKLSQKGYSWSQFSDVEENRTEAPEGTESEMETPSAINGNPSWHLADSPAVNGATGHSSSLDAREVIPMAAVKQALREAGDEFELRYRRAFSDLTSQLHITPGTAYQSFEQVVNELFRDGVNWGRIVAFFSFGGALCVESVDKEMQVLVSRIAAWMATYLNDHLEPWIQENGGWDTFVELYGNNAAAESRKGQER
Procedure: as §1
Head of the field: Bcl-xL ΔC24
as §2, §3
Where the first naming reader finds the target: head: Bcl-xL ΔC24

GST Mcl-1 = GST Mcl-1 (Mus musculus, UniProt P97287); assay: GST pull-down with recombinant BH3-only proteins; type: binding
Chain of GST Mcl-1 (P97287 whole entry): as the sequence (P97287 whole entry) above

Mcl-1 ΔN151 ΔC23 = molecular target: T7, Mcl-1 ΔN151 ΔC23 (Mus musculus, UniProt P97287); assay: Mcl-1 ΔN151 ΔC23
T7 construct: mouse Mcl-1 (Acc. no. NP_031588; residues 152-308); GST (N, cleaved yes); made in house
T7 sequence (P97287 152-308, stated change not applied): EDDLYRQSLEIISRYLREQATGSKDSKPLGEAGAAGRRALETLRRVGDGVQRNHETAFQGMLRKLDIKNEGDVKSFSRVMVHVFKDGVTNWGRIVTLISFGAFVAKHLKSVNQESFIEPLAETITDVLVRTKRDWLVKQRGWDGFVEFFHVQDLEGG
Procedure: as §1
Head of the field: Mcl-1 ΔN151 ΔC23
as §2, §3
Where the first naming reader finds the target: head: Mcl-1 ΔN151 ΔC23

FLAG-tagged Bcl-2 = molecular target: T8, FLAG-tagged Bcl-2 (Homo sapiens, UniProt P10415); assay: Co-immunoprecipitation in transfected 293T cells; type: binding; details: tagged full-length proteins
T8 construct: expressed in transfected cells; host or cells: HEK293T
T8 sequence (P10415 whole entry): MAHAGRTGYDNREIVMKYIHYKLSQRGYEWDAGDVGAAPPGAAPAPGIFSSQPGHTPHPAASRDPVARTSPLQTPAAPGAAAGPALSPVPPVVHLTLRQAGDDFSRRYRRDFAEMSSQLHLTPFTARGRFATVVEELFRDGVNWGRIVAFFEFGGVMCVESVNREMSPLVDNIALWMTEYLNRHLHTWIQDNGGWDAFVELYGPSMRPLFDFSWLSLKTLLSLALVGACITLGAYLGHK
Source text: as §4, §5, §6, §7

B1: Noxa: full-length BH3-only protein Noxa expressed in cells (mouse Noxa bearing two BH3s in co-immunoprecipitation) (protein, UniProt Q9JM54 1-103, looked up)
chain: MPGRKARRNAPVNPTRAELPPEFAAQLRKIGDKVYCTWSAPDITVVLAQMPGKSQKSRMRSPSPTRVPADLKDECAQLRRIGDKVNLRQKLLNLISKLFNLVT
modifications: full-length
long-term survival, GFP+ve colonies [1]: modest effects
killing of MEFs on co-expression with the BadBH3 ([2]; co-expressed with GFP-Bims BadBH3, 24 hours): as much cell death as expression of Bims alone
killing of MEFs on co-expression with the NoxaBH3 [2]: did not augment
killing of MEFs [2]: much less potent killers
IC50 (Bcl-w ΔC29): > 100000 nM
interaction with Mcl-1 by co-immunoprecipitation (FLAG-tagged Mcl-1): interacted only with Mcl-1
interaction with Bcl-xL by co-immunoprecipitation (FLAG-tagged Bcl-xL): did not
IC50 (Bcl-2 ΔC22): > 100000 nM
IC50 (A1 ΔC20): 180 nM
IC50 (Bcl-xL ΔC24): > 100000 nM

B2: Bmf: BH3-only protein Bmf, expressed from retrovirus in MEFs, recombinant in GST pull-down (protein, UniProt Q91ZE9 1-185, looked up)
Bcl-2-modifying factor: MEPPQCVEELEDDVFQSEDGEPGTQPGGLLSADLFAQSQLDCPLSRLQLFPLTHCCGPGLRPISQEDKATQTLSPASPSQGVMLPCGVTEEPQRLFYGNAGYRLPLPASFPAGSPLGEQPPEGQFLQHRAEVQIARKLQCIADQFHRLHTQQHQQNRDRAWWQVFLFLQNLALNRQENREGVGPW
killing of MEFs [2]: much less potent killers
binding of GST Mcl-1 (GST Mcl-1): weakly
IC50 (A1 ΔC20): 1800 nM
IC50 (Mcl-1 ΔN151 ΔC23): 1100 nM

B3: Bik: full-length human BH3-only protein Bik expressed in cells (protein, UniProt Q13323 1-160, looked up)
chain: MSEVRPLSRDILMETLLYEQLLEPPTMEVLGMTDSEEDLDPMEDFDSLECMEGSDALALRLACIGDEMDVSLRAPRLAQLSEVAMHSLGLAFIYDQTEDIRDVLRSFMDGFTTLKENIMRFWRSPNPGSWVSCEQVLLALLLLLALLLPLLSGGLHLLLK
modifications: full-length
long-term survival, GFP+ve colonies [1]: modest effects
killing of MEFs on co-expression with the NoxaBH3 [2]: potently enhanced
killing of MEFs [2]: much less potent killers
interaction with Bcl-xL by co-immunoprecipitation (FLAG-tagged Bcl-xL): to a greater extent than Bcl-2 or Mcl-1
IC50 (A1 ΔC20): 58 nM

B4: Bad: full-length mouse BH3-only protein Bad expressed in cells, recombinant in GST pull-down (protein, UniProt Q61337 1-204, looked up)
chain: MGTPKQPSLAPAHALGLRKSDPGIRSLGSDAGGRRWRPAAQSMFQIPEFEPSEQEDASATDRGLGPSLTEDQPGPYLAPGLLGSNIHQQGRAATNSHHGGAGAMETRSRHSSYPAGTEEDEGMEEELSPFRGRSRSAPPNLWAAQRYGRELRRMSDEFEGSFKGLPRPKSAGTATQMRQSAGWTRIIQSWWDRNLGKGGSTPSQ
modifications: full-length
notes: full-length mouse BH3-only protein Bad expressed in cells, recombinant in GST pull-down
killing of MEFs [2]: much less potent killers
binding of GST Mcl-1 (GST Mcl-1): not
IC50 (Bcl-w ΔC29): 30 nM
interaction with Mcl-1 by co-immunoprecipitation (FLAG-tagged Mcl-1): not appreciably
interaction with Bcl-2 by co-immunoprecipitation (FLAG-tagged Bcl-2): bound well
interaction with Bcl-xL by co-immunoprecipitation (FLAG-tagged Bcl-xL): bound well
IC50 (Bcl-2 ΔC22): 16 nM
IC50 (A1 ΔC20): 15000 nM
IC50 (Bcl-xL ΔC24): 5.3 nM
IC50 (Mcl-1 ΔN151 ΔC23): > 100000 nM
